Assay: endo-type α-(1-4)L-fucosidase activity (HPLC of PA-labeled substrate)
Assay type: biochemical, Fucus vesiculosus
Conditions: endo-type α-(1-4)L-fucosidase activity after each purification step, Table 14
Method: The sulfated fucan oligosaccharide 1-(4) as described in Example 2 was used to establish a system for measuring an endo-type α-(1-4)L-fucosidase activity. First, the sulfated fucan oligosaccharide 1-(4) was fluorescently labeled at the reducing end with 2-aminopyridine according to the method as described in Example 2-(4). The endo-type α-(1-4)L-fucosidase activity was measured as follows.
Briefly, 75 μl of 100 mM sodium phosphate buffer (pH 7.0), 7.5 μl of a bovine serum albumin solution (2 mg/ml), 3.75 μl of 4 M sodium chloride, 50.25 μl of water, 6 μl of the sulfated fucan oligosaccharide 1-(4) fluorescently labeled at the reducing end with 2-aminopyridine (10 pmol/μl) and 7.5 μl of an endo-type α-(1-4)L-fucosidase solution were mixed together. After reacting at 30° C. for 3 hours, the reaction mixture was treated at 100° C. for 10 minutes and analyzed using HPLC. As controls, a reaction mixture obtained by a reaction in which the solvent for the endo-type α-(1-4)L-fucosidase was used in place of the enzyme solution and a reaction mixture obtained by a reaction in which water was used in place of the substrate were similarly analyzed. […]

Hydroxyapatite
Specific activity: 10.6 mU/mg | Total activity: 219 mU
